According to the DeepSol protein solubility set:

Experiment: soluble on expression in E. coli; label from the status in PepcDB or PDB records

Sequence | soluble on expression in E. coli
VRTHEVVLHRIEQDLAAGKLTVGGRLPAERALAEELGVGRSSVREAMRVLEAMGIVRTAVGSGPDAGAIVAADPAASIGAAIRLHMATRTLPIHDVVQTRTLLESWAVQEAAGQAPDLDFSAIDTLLDAMDDEDLSPEAFHRLDADLHVAMAGLAGNVLVEAMMVSLRDSIHGYVMQAVPLLDDWPAVATHLRCEHRGIVAALRDGHGAEAAGLVREHIEGFYGRFAPVRG | not soluble
MRFFVSGMPGVGKTTLAKRIADEVRREGFKVGGIITEEIREGGKRTGFRVIALDTGEIGRLAYVGYGYPRLGKYVIDVEGFERVAIPALSRALRGADLIVIDEIGPMEFKSNEFLKALGLVLKSEKHLLATVHRRLVDRYRPLGEYYWLTPENRNAVFSEILGRIKGLLKEKLEHHHHHH | soluble
MSLTKSGLAHAAGVSTSVIDGLVKQGVFETVFLPAPPVVAEPDPDYVEPRLEGPQKQAASEIIEDVRKGGFHVSLIDGVTGSGKTEVYFEAVAETLRQGKQVLILLPEIALTAAFLERFQDRFGAKPAEWHSDLSPRMREKVWRQAVTGEIKVVAGARSALFLPFDNLGLIIVDEEHDPAYKQEDRVFYNARDMAVVRARIAEFPVVLVSATPSVESQVNGSSGRYNTIHLHTRFGDAAMPDLHLVDMRRHPPERGGFLSPVLLRGIGKTIEKGEQSLLFLNRRGYAPLTLCRVCGHRFQCPQCSSWLVEHRFRNQLQCHQCGHNEPTPDHCPECGTFDHLVACGPGVERIAEEVEKHFPEARTIVLSSDLMGVKRLRLELEAIVKGEADIVIGTQLVAKGHNFPLMTLVGIVDADLGLANGDPRAAERTFQLLSQVTGRAGRTGLKSHGLLQTYQPQHPVMQAIVSGDASAFYEREIVEREKAVLPPFGRLASIIVSADTRAEAETHARGLRAAAPQVTGIMLLGPAEAPLALIRGRHRFRLLVHGRRNSDMQSFLRTLLASGPKERGSVHVQLDIDPQSFLEGHHHHHH | not soluble
MSKDEILKLGREEFFKSVKMEYRPYFEPYETPESVYPDGSINIDCTCLHSALAHRCGYLIRDALVCFNASKTTPRGLDCEKEFVAHAICTEEANNKS | not soluble
MTNNITPIHEYKKYWAECFGTAPFLPTSRKEMDALGWDSCDIIIVTGDAYVDHPSFGMAIIGRLLEAQGFRVGIIAQPEWQNKNAFMQLGKPNLFFGITAGNMDSMINRYTADKKLRHDDAYTPNNEGGKRPDRATLVYSQRCREAYKEVPIVLGGIEASLRRVAHYDYWSDKVRRSVLFDAKADILLFGNAERALVEVAHRIANGEDISTMTNIRGTAVNLPAAPEGYTVIDSSRIEKPRKEAFVPKNPYEVETQCETKKDEPVAQPITIRPSRHDAATTAVRLPSFEKLRNDRILYAHASRVLHLETNPYSGRALLQSHGDRELWVNQAPIPLTTEEMDFVFGLPYARVPHPMYGKAKIPAYDMIKTS | not soluble
MLSYHTDIPTDLPLLRQAVEAIRREESGGAVPDSDRPRVIYEARNRLYAIRTAQGEQVVKSFRIPIAIQRVVYSFFRPSKAARSYRNAIRLGRCGIGTPRPSGYAIEREKGLLCRSYYVCESMHDCRDIRLSMQGVEGGEALLRALAGFIARMHRAGIHHIDLSPGNVLYRTDEKGEYSFYLIDLNRMKFYDKPIVGRKAYANFARLSFCPAVSKQLAEYYAEAQGLNTDGVVQGVQSESDRFFRSKVRKYARKALVREQKRMSRSAFRRAYIRYRSVRLIRKLTGCTRLFRIENDLYTSYLEVGDLRHTLKRAEGYSSPKNVQ | not soluble
GSSRGIPPKIEALPSDISIDEGKVLTVACAFTGEPTPEVTWSCGGRKIHSQEQGRFHIENTDDLTTLIIMDVQKQDGGLYTLSLGNEFGSDSATVNIHIRSI | soluble
MSLDDRRLIAEVEARRADLVALTQDLVRIPTLNPPGRNYRALCDMLAARLAPQFEVELVRAHGAPGDSETYPRWNLIARRQGARDGDCVHFNSHHDVVEVGHGWTRDPFGAEVEGDRLYGRGACDMKGGLAASVIAAEAFLAVCPDFAGSIEISATADEESGGFGGVAYLARQGRFAHVQHVLIPEPLHKDRICLGHRGVWWAEVETQGRIAHGSMPFLGDSAIRHMGALLAEIEERLYPLLATRTTAMPVTPEGARQSTLNINSIHGGEPEPEPGYTGLPAPCVADRCRIVIDRRFLIEEDLDEVKAELRALAERLAEARPGFAFEIRDLFEVRPTLTDRDAPVVRSTAAAIERVLARQAEYVVSPGTYDQKHIDRIGKLKNCIAYGPGLLHLAHQPDEWVGIADMVDSAKVMALVLADLLAPEEGHHHHHH | soluble
MFLNSLDLPGQPENSRIVVAMSGGVDSSVVAGLLKKEGYDVIGITLQLYDHGAATHRVGACCAGQDIEDARCVAETLGIPHYVLDYEERFREAVIDPFAASYAHGETPVPCIACNQTVKFADLLATARELDADALATGHYIRSRSHGAHRALFRPLDSDRDQSYFLFATTQEQIDYLRFPLGDLPKARVREMATEMGFVVANKHDSQDICFVPQGKYSDIITKLRPEAVNPGVIVHVDGQVLGKHSGIVHYTVGQRRGIGVATGEALYVVYLDVENARVIVGPREMLETHKLFLRDVNWLGDERLDNFPPDGIEMAVKVRSTRPPHLARLHYQEGVFSVDFLECENSVAPGQACVFYDGNSDGARVLGGGFVTHSERAAETEMMLKRVLCNLETTSAVASEFKTKVSYT | not soluble
MSLADIFDFPRDARNVARADGKEADMGGEAPQTMLMRPQGVPDQVWNAVLSVDRMRRLKGMTYREIPVPNSMANFGIGVALECDETYASGWIMILYSLKFREDWHSHWRCVAFASLPLPDKEDDCLTPGMYWDMMMERLNPNDSEHVSGTVTVTQNTAFGHDPDVPRVGCEIRVSWTPLDYADGGLDAGSQVGQWASFLRSMTQSEEEGHHHHHH | soluble
MRVDAIAKVTGRARYTDDYVMAGMCYAKYVRSPIAHGYAVSINDEQARSLPGVLAIFTWEDVPDIPFATAGHAWTLDENKRDTADRALLTRHVRHHGDAVAIVVARDELTAEKAAQLVSIEWQELPVITTPEAALAEDAAPIHNGGNLLKQSTMSTGNVQQTIDAADYQVQGHYQTPVIQHCHMESVTSLAWMEDDSRITIVSSTQIPHIVRRVVGQALDIPWSCVRVIKPFVGGGFGNKQDVLEEPMAAFLTSKLGGIPVKVSLSREECFLATRTRHAFTIDGQMGVNRDGTLKGYSLDVLSNTGAYASHGHSIASAGGNKVAYLYPRCAYAYSSKTCYTNLPSAGAMRGYGAPQVVFAVESMLDDAATALGIDPVEIRLRNAAREGDANPLTGKRIYSAGLPECLEKGRKIFEWEKRRAECQNQQGNLRRGVGVACFSYTSNTWPVGVEIAGARLLMNQDGTINVQSGATEIGQGADTVFSQMVAETVGVPVSDVRVISTQDTDVTPFDPGAFASRQSYVAAPALRSAALLLKEKIIAHAAVMLHQSAMNLTLIKGHIVLVERPEEPLMSLKDLAMDAFYHPERGGQLSAESSIKTTTNPPAFGCTFVDLTVDIALCKVTINRILNVHDSGHILNPLLAEGQVHGGMGMGIGWALFEEMIIDAKSGVVRNPNLLDYKMPTMPDLPQLESAFVEINEPQSAYGHKSLGEPPIIPVAAAIRNAVKMATGVAINTLPLTPKRLYEEFHLAGLI | soluble
MQQQVAPVPVIGVTADVLQMQANMKSLKSQLTNAPYGDSPLLKYNANPEIDGKSSPASTQRQLRFLAAKKGALSSSSDAQDSSFIIPPISKVMSDLSPAVTRSADVTKDLNYTSKEAPPSLARGLRNSTFNPNMSLTNRSVHESSALDKTIDSALDASMNGTSNRLGVRGSVRRSNLKQLDMSLLADSSRVGRESRVADPDALPRISESERRQDVVTSTPAVDPVQAVIQRHNDRNRDPPSLNLDTTCDEHTGLEPVSAATSSAASVVSTPSEETVNVNSAAGVKLTKPDYFSLPTINEMKNMIKNGRVVLEDGLTVGRSSYGSVYWPGRVELKDVALDEIVVFRHREVTVYPNEEEKAPEGQELNRPAEVTLERVWYTDKKTKKEVRDVVKLSEIGWREHLERQTIRMGAAFKDFRAETGSWVFRVDHFSKYGLADDDEPMDGSPPQQALQASSPLQVIDMNTSARDVNNQVQRKKVHKATDAHHQEIILERVPAPAALGDVVPIIRRVNRKGLGGGTLDDSREESCIGNMTTEFNESGHDSIIEEGQQPEKKPKLELLADLEYESSRFIRNLQELKVMPKANDPAHRFHGGGHSAKMIGYGKSKLIDIGIVKGRSSHVGWSETGCLVWSAQPRHNQVLFGTIDRTSDVNENTLISMLDVNVHVSETSRKGPSSQSNSVKSSLTSNFVTYSDSYSSMFAKYIDVAQAGGYDGHVSVWKLISALFPYERREGWSFERGEEIGEWLRTEAVKSVPDDRSADTSSNGVWNQLCLGDIDKAFQIAIDNNQPQLATMLQTSAVCPEATVHCFKAQLDNWKKCETLHLIPKETLKCYVLMSGLSHYEWDQDGKNHSINCLDGLNWIQALGLHVWYLRAWTGLEESYDAYQKDVNAGRAASNRGDLPGELIKLACESQHSVEVVLDCAAGENPNDYFLQWHVWSLLYSVGYRTMSKTSETRLHRNYSSQLEASSLSKYALFVLQHIDDDEERSTAVRSLLDRIARFTDNDMFDSISEQFDIPSEWIADAQFSIAKSVDDSTQLFELAVAAKNYLEICRLFVDDIAPTAVVAGDHDALKAACAMVRPFENQIPEWGATGMVYTDYCRLINLIENDAEEELLQDVLESLETRLHAPTISKNSLQKLSLQTIGRVLFEYRADKNTLPEWTKLLGHRQMFKIFRDRSSWGIERFTIEFD | not soluble
SFSWLLRLCQKENGDEGDTRPTKKEEGILSHEKGRRKSFWRRHRSARNTSTQNSNITNQISNINKVRELKLDMRKISNDMEEMCGILNLYMYEDLNYRMNTEFNIIKSQHEKTMLDMDKMTQSIIASMKFSEELLKDNYSYSIKQKRGSVRRPARTCVSQVPRSSRCDHEIPQISDPDGSLHSSWDLGSIVSSEPD | soluble
MAHHHHHHMLSEEEQATLLKYYSTVKLHETQMDQLAQAYWAATREERGEIAKVYAHTFVDPTFVQRLIFFHDYRMSLTAAGAGLSSSTGAAVGTGSSFAGQQSGSESANSPLMAGPPSSFMAESPTTAANHAPRRTHAQHLLRSTIQEHFPKLTGPGPYALQFGCVQSEKEREEVIELYSSQFLHPDPPELHRIVALPSSFSTRTRKRISGSYSWYLRCLATQELVCAVTVTVHQQETIRFAEMPLFATGVGYKKNGFGRLLNAALLAWCAEVGLEFIMISADVQAIPFWRHLGYRAMTRGEKNRIDFFYQHDCCKFKGAETMIGYCNVDRGNGSLSGGVGRRAFHSGGSTEVLHRSVRQVLAQLPRFVVEGPAKLPTE | soluble
MGSDKIHHHHHHMKDILKELKKKLSEEDFNKFNGRVTRVVGLTVESKGPDAFLGEMCKISLQNGKNALAEVVGFREESVILMPYEDVSGLKMGCEVIRTNKVLEVGVSRKMIGRVFDGLGRPIDGKPFVPEDRYPLINNPPNPLKRRRIKDPLPVGIRSIDGFITIGKGQRIGIFAGSGVGKSTLLGMIARNTTADINVLALIGERGREVREFIERDLGEEGLKRSILVVSTSDQPALARVKSLLTATSIAEFFRDLGYDVLLMVDSLTRWAMAQREVGLAVGEPPTTRGYPPSVFAGLPKILERAGNSDKGSITAIYTVLVEADDFNEPISDTVRSIVDGHIILSRRLAESNHYPAVDVLASVSRLMNDIVTEEHREAANRLRSLMSAYESAKDLIEIGAYKSGTNPLVDKAVEMKDEIDSFLKQGVFEKASFEETLQKLLDLYLRSLD | not soluble
MTQDDFFDLTPVEDFDSYDPLADTEDEEFDLEAPAESGMFLVEPGEFPTVDELASQAEALQQAPAAQRIATLFDHMERSRKILLGILEMCDGQVQPNELVISRIEKLKANNKSVYTPDNMCMMLVRAGALRRVTQDGTDYEDIEDTLEPKRVVIDGVEYLEPVQAPQICWLTTPEGSQVVAADQPRARLRELLENEPQYRHVFRTVLEMCAPDGGTTQKALSAALDNDPALMHPRMYAMRFAERLAQNDALEWRDNAWRITDIGSEGLDIIAELDAAEQADD | not soluble
